To fix the notation:
T1: HA-tagged full-length human LGR7 expressed on cells (HA-LGR7/DG44, HA-LGR7/BaF3) (human, UniProt Q9HBX9 1-757)
T1 construct: Full-length human LGR7 with an N-terminal HA tag, forcedly expressed in DG44 (CHO-derived) or Ba/F3 cells; also called HA-LGR7/DG#24; HA-LGR7/DG44#24
T1 sequence: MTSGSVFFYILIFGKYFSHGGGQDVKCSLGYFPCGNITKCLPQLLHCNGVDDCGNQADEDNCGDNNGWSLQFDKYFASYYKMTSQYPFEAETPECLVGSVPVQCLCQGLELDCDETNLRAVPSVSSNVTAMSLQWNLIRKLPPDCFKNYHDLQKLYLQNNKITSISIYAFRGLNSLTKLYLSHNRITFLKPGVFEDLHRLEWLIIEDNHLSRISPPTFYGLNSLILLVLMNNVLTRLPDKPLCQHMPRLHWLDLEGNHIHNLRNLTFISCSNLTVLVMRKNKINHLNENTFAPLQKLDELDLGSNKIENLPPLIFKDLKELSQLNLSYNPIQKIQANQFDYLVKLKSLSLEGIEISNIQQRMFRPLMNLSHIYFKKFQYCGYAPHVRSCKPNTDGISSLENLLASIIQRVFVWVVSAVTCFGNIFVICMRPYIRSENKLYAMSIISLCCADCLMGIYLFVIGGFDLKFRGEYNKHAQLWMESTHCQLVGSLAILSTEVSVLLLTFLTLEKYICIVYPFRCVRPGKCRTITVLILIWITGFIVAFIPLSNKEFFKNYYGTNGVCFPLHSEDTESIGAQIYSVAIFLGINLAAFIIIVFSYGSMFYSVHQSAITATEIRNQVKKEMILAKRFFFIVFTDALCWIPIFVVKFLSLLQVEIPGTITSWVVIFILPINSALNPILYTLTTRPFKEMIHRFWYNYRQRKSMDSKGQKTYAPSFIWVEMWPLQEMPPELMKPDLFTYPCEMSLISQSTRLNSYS

B1: 22DA17 (antibody, IgG2b, V domains shown)
VH: QVQLQQSGAELVRPGVSVKLSCKASGYSLTTYWMNWVKQRPGQGLEWIGMIHPSDSETVINQKFKDKATLTVDKSSSTAYMQLSSPTSEDSAVYYCARWDYDYYFDYWGQGTTLTVSS
VL: DVLMTQTPLSLPVSLGDQASISCRSSQSIVHSNGNTYLEWYLQKPGQSPNLLIYKVSNRFSGVPDRFSGSGSGTDFTLKISRVEAEDLGVYYCFQGSHVPFTFGSGTKLEIK
notes: Mouse hybridoma antibody, isotype IgG2b; also called Bio-22DA17 (biotinylated form)
B2: 22SD7 (antibody, IgG2a, V domains shown)
VH: QVQLQQPGAELVRPGASVKLSCKASGYTFTSYWMNWVKQRPEQGLEWIGRIDPYDSETHYNQKFKDKAILTVDKSSSTAYMQLSSLTSEDSAVYYCARWEVVAPWDYWGQGTTLTVSS
VL: DIVMTQAAPSVPVTPGESVSISCRSSKSLLHSNGNTYLYWFLQRPGQSPQLLIYRMSNLASGVPDRFSGSGSGTAFTLRISRVEAEDVGVYYCMQHLEYPWTFGGGTKLEIK
notes: Mouse hybridoma antibody, isotype IgG2a; also called anti-LGR7 monoclonal antibody 22SD7
B3: 22DA23 (antibody, IgG1, V domains shown)
VH: EIQLQQSRPELVRPGASVKVSCQASGYAFTNYNMYWVKQSHGKSLEWIGYIDPYNDDTTYNQKFKGKATLTVDKSSSTAYMHLNSLTSEDSAVFYCARFRLGYYAMDYWGQGASVTVSS
VL: DIVLTQSPASLAVSLGQRATISCKASQSVDYDLDSYMNWYQQKPGQPPKLLIYVASNLESGIPARFSGSGSGTDFTLNIHPVEEEDAATYYCQQSNEDPFTFGSGTKLEIK
notes: Mouse hybridoma antibody, isotype IgG1; also called anti-human LGR7 monoclonal antibody 22DA23

The target of the assay is T1, HA-tagged full-length human LGR7 …. Kind of assay: flow cytometry, hybridoma supernatant on LGR7-expressing DG44 cells against parental DG44 cells. The method, then: The binding of the obtained hybridomas to human LGR7/DG44 cells was evaluated by flow cytometry. The cell line expressing human LGR7 suspended in FACS buffer (2% FBS/PBS/0.05% NaN₃) was diluted to 1×10⁶ cells/mL using FACS buffer, and this was aliquoted into a Falcon 353910 round-bottom 96-well plate at 50 μL/well. The hybridoma culture supernatant diluted to a suitable concentration was added to the wells containing the cells, and this was reacted for 60 minutes on ice. Next, the cells were rinsed once with FACS buffer. As a secondary antibody, a goat F(ab′)₂ fragment anti-mouse IgG Fcγ-FITC (Beckman Coulter) was added to the wells containing the cells, and this was reacted for 30 minutes on ice. After the reaction, the supernatant was removed by centrifugation, and the cells were suspended in 100 μL of FACS buffer, and subjected to flow cytometry. The FACS Calibur (Becton Dickinson) was used for the flow cytometry. A gate for the viable cell population was established using a forward scatter/side scatter dot blot, and an FL1 histogram was produced for the cells included in the population, and their binding activity was evaluated.
The hybridoma supernatants were reacted with DG44 cells induced to express LGR7 and the parental DG44 cells, respectively. Thus, hybridomas that specifically react with LGR7-expressing cells were obtained. The hybridomas from the wells were made into single clones by the limiting dilution method. The isotype of each antibody was analyzed using an IsoStrip® mouse monoclonal antibody isotyping kit (Roche Diagnostics). As a result, the isotype of 22DA6, 22DA7, 22DA11, 22DA12, 22DA23, and 22DA24 is IgG1; and the isotype of 22DA4, 22DA10, 22SD7, 22SD25, 22SD31, and 22SD48 is IgG2a; and the isotype of 22DA17 and 22DA20 is IgG2b. Expansion culture of a single-clone hybridoma was performed, and then the antibody was purified from the culture supernatant using a protein G column according to the manual. The purified antibody was subjected to protein quantification by DC Protein Assay, etc.
(In general: In flow cytometry, cells or beads pass a laser one at a time.)
Turning to B1, the binding result is listed as “binds”.
Under B2 stands “binds”; under B3, “binds”.

(Values after patent US20120014870A1 (FORERUNNER PHARMA RESEARCH, published 2012).)
